Assay results taken from patent US20100331255A1 (WAKE FOREST UNIVERSITY HEALTH SCIENCES, published 2010).

Target: T1, Rat PDI (protein disulfide isomerase) in extracted rat liver microsomal membranes (rat, UniProt P04785 20-509)
T1 construct: Endogenous protein solubilised from extracted rat liver microsomal membranes; also called 55 kDa PDI protein
T1 sequence (looked up): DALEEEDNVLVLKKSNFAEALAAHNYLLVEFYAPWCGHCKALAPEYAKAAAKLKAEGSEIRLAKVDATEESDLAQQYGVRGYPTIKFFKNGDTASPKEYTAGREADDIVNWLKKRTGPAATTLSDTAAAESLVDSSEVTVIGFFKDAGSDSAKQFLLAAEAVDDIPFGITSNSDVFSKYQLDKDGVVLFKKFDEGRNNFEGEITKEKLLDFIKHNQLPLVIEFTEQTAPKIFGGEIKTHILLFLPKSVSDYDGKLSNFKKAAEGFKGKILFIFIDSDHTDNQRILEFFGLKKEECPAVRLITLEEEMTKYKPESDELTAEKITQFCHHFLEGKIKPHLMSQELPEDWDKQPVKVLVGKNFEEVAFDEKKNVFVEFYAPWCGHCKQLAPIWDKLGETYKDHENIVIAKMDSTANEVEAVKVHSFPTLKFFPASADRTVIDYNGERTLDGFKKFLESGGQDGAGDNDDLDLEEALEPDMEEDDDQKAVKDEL
Assay: immunoprecipitation with rat VKORC1 antibodies from solubilised rat liver microsomal membranes, Western blot with PDI monoclonal antibody
Description: Lane St. has standard proteins. […] Lanes D and E show Western blots of extracted human and rat liver microsomes respectively with peptide antibodies raised against an epitope on human VKORC1 (see Experimental Procedures). […] The sequence of precipitating and first antibody is shown. Rat PDI and the heavy (HIgG) and light (LIgG) chains of mouse IgG are visible. Panel II, lanes G.Ox. and G.Red show immunoprecipitates obtained with rat VKORC1 antibodies and their Western blots developed with the mouse PDI monoclonal antibody as the first antibody and horse radish conjugated goat anti-mouse IgG as the second antibody. The sequence of precipitating and first antibody is shown. Preparation of the samples before SDS-PAGE in 8-12% CRITERION gels is described in detail in Experimental Procedures. The samples in G.Ox and G.Red were not reduced and reduced with ME respectively prior to electrophoresis.
Extracted microsomal membranes were resuspended in buffer D (250 mM sodium phosphate, 0.5 M KCl, 20% glycerol, 0.75% CHAPS, pH 7.85 containing 10 μg/ml of the Sigma Protease Inhibitor Cocktail for use with mammalian cell and tissue extracts) using a Dounce homogenizer. For blocking of free thiol groups, 20 mg NEM was added per ml of buffer D before homogenizing. The protein concentration was 6.8 mg/ml. […]

binding result: binds
B1: Rat VKORC1 in extracted rat liver microsomal membranes (enzyme, UniProt Q6TEK4 1-161, looked up)
chain: MGTTWRSPGRLRLALCLAGLALSLYALHVKAARARNEDYRALCDVGTAISCSRVFSSRWGRGFGLVEHVLGADSILNQSNSIFGCMFYTIQLLLGCLRGRWASILLILSSLVSVAGSLYLAWILFFVLYDFCIVCITTYAINAGLMLLSFQKVPEHKVKKP
notes: Endogenous protein
